Results from patent publication US20230183329A1, “COMBINATION THERAPY FOR TTR AMYLOIDOSIS” (Neurimmune AG, priority 2020, published 2023).

How the values were obtained:
[1] = cited from earlier work
[2] = biological target: T1, TTR tetramers (tetr.WT-TTR) (Homo sapiens, UniProt P02766); experiment: BLI binding kinetic assay, TTR tetramers
T1 construct: Plasma-purified wtTTR was provided as a solution at a concentration of 2 mg/mL in PBS buffer; from tissue; host or cells: human plasma
Procedure: (§1) The antibody NI-301.37F1 was loaded on anti-human capture sensors at 5 μg/mL in PBS for 5 min at 25° C. The binding assay was performed with soluble WT-TTR amyloid aggregates and tetrameric WT-TTR. A baseline was performed in 1× kinetic buffer for 3 min, the association was measured for 10 min and the dissociation for another 10 min in 1× kinetic buffer, all steps performed at 25° C. with shaking at 1000 rpm. A reference sample was also included consisting in 1× kinetic buffer.
(§2) Data were analyzed in ForteBio Data Analysis 8.2 software, using reference subtraction and interstep correction between association and dissociation.
NI-301.37F1 absent binding to TTR tetramers was investigated in presence and absence of TTR stabilizers using BLI. Soluble ATTR oligomers were included in this experiment to serve as positive controls. […]

mis.WT-TTR aggregates = biological target: T2, mis.WT-TTR aggregates (Homo sapiens, UniProt P02766); experiment: Direct ELISA, NI-301.37F1 binding to amyloid wtTTR aggregates in presence of TTR tetramer stabilizers; conditions: for EC50 value of antibody binding to TTR amyloid: versus vehicle
T2 construct: Plasma-purified wtTTR was provided as a solution at a concentration of 2 mg/mL in PBS buffer; from tissue; host or cells: human plasma
Procedure: 96 well microplates were coated for 1 hour at 37° C. with mis.WT-TTR aggregates diluted to a concentration of 10 μg/mL in PBS buffer pH7.4. Non-specific binding sites were blocked for 1 hour at room temperature (RT) with a blocking buffer containing 2% bovine serum albumin (BSA) and 0.1% tween-20 in PBS buffer. Human NI-301.37F1 antibody was diluted in duplicates to the indicated concentrations in PBS supplemented with tafamidis or diflunisal at 10 μg/mL or corresponding concentration of vehicle buffer, and incubated overnight at 4° C. Binding was determined using an anti-human IgG antibody conjugated with horseradish peroxidase (HRP), followed by measurement of HRP activity in a standard colorimetric assay.
Data were analyzed with the Prism software from GraphPad. EC50 values were estimated using non-linear regression of individual data points using log(agonist) versus response model with variable slope. Data fitting was performed with the least square regression method.
For the assessment of the binding affinity of anti-TTR antibody in the presence of TTR tetramer stabilizer direct ELISA and EC50 determination has been substantially performed in Example 3 of WO 2015/092077 A1. ELISA plates were coated for 1 h at 37° C. with amyloid wtTTR aggregates and blocked for 1 h at room temperature with blocking buffer (PBS pH 7.4, 1% BSA and 0.1% polysorbate 20).
Tafamidis and diflunisal were dissolved in vehicle (80% PBS pH 7.4, 10% ethanol, 10% polysorbate 80) and antibody NI-301.37F1 dilution series were prepared with tafamidis or diflunisal at a final concentration of 10 μg/mL or a corresponding volume of the vehicle. The concentration of 10 μg/mL is […] the maximal peak concentration in patients treated with tafamidis at 80 mg per day (˜6 μg/mL). NI-301.37F1 dilution series were incubated in the ELISA plates overnight at 4° C., and, after washes, NI-301.37F1 was detected using an horseradish peroxidase (HRP)-coupled anti-human IgG antibody and standard detection methods. Data were analyzed with the Prism software from GraphPad. […]

[3] = biological target: T3, soluble ATTR oligomers (mis.WT-TTR) (Homo sapiens, UniProt P02766); experiment: BLI binding kinetic assay, soluble ATTR oligomers; conditions: in presence or absence of AG10 or diflunisal at 5 μg/mL
T3 construct: Plasma-purified wtTTR was provided as a solution at a concentration of 2 mg/mL in PBS buffer; from tissue; host or cells: human plasma
Procedure: as §1, §2
NI-301.37F1 absent binding to TTR tetramers was investigated in presence and absence of TTR stabilizers using BLI. Soluble ATTR oligomers were included in this experiment to serve as positive controls.
NI-301.37F1 binding to ATTR oligomers and TTR tetramers was evaluated in presence of the TTR stabilizers AG10 and diflunisal at 5 μg/mL, or in presence of corresponding vehicle buffer using BLI.

misfolded TTR = misfolded TTR (Homo sapiens, UniProt P02766); conditions: cited from earlier work

binding to TTR-diflunisal complexes ([2]; TTR tetramers in presence of diflunisal)	binding to TTR-tafamidis complexes ([2]; TTR tetramers in presence of tafamidis)	binding selectivity (absent binding to TTR tetramers) ([2]; in presence of TTR stabilizers (conclusion))	binding to TTR tetramers in solution ([2]; no stabilizer)	binding to ATTR oligomers in solution [3]	Molecule	mean half-life ([1]; human)	maximal peak concentration ([1]; patients treated with tafamidis at 80 mg per day)	binding to amyloidogenic TTR (mis.WT-TTR aggregates; in the presence of TTR stabilizers tafamidis and diflunisal, 10 μg/mL)	EC50 value of antibody binding to TTR amyloid (mis.WT-TTR aggregates; in the presence of diflunisal at 10 μg/mL)	EC50 value of antibody binding to TTR amyloid (mis.WT-TTR aggregates; in the presence of tafamidis at 10 μg/mL)	binding affinity to misfolded TTR (misfolded TTR)
					O=C(O)c1ccc2nc(-c3cc(Cl)cc(Cl)c3)oc2c1 [tafamidis]	approximately 49 hours	~6 µg/mL				
did not bind	did not bind	maintained	did not bind	virtually identical	NI-301.37F1: human-derived monoclonal anti-TTR antibody binding epitope TTR41-45, selective for misfolded TTR, disclosed in WO 2015/092077 A1 (antibody, V domains shown) VH: QVQLQESGPGLVKPSETLSLTCSVSGGSIISRSSYWGWIRQPPGKGLEWIGGIYHSGNTYDNPSLKSRLTMSVDTSKNQFSLNLRSVTAADTAVYYCARIVPGGDAFDIWGQGTMVTVSS VL: DIQMTQSPSSLSASVGDRVTIACRASQSVGTYLNWYQQKRGKAPKLLIFAASSLQSGVPSRFSGSGSGTDFTLTISSLQPEDFATYYCQQSYSSPPTFGQGTKVEIK			maintained	increased	remained substantially unaffected	sub-nanomolar range
